In the assay the target is 6His-Nup60 aa27–539ΔHRΔFG-mGFP-StrepII (budding yeast (S. cerevisiae), UniProt P39705 27-539, ΔHR (aa48–162) | ΔFG (aa381–504)). Kind of assay: GUV co-recruitment assay.

B1: 6His-SUMO-Nup2 aa83–136–TagmBFPII-StrepII (domain or fragment, budding yeast (S. cerevisiae), UniProt P32499 83-136, looked up)
chain: NSPTTESNSRLKALNLQFKAKVDDLVLGKPLADLRPLFTRYELYIKNILEAPVK
Consider B1, for which the binding result is recorded as “binds”.

These data come from PMC8836807 (Science Advances, 2022).
